B1: unnamed (protein)
chain 1: EVQLVQSGAEVKKPGESLRISCKGSGYSFSTYWISWVRQMPGKGLEWMGKIYPGDSYTNYSPSFQGQVTISADKSISTAYLQWSSLKASDTAMYYCTRGVGLFDYWGQGTLVTVSS
chain 2: SYELTQPPSVSVSPGQTASITCSGDNIGDQYAHWYQQKPGQSPVLVIYQDKNRPSGIPERFSGSNSGNTATLTISGTQAMDEADYYCATYTGFGSLAVFGGGTKLTVL
B2: unnamed (protein)
chain 1: EVQLVQSGAEVKKPGESLRISCKGSGYSFSTYWISWVRQMPGKGLEWMGKIYPGDSYTNYSPSFQGQVTISADKSISTAYLQWSSLKASDTAMYYCTRGTGLFDYWGQGTLVTVSS
chain 2: SYELTQPPSVSVSPGQTASITCSGDNIGDQYAHWYQQKPGQSPVLVIYQDKNRPSGIPERFSGSNSGNTATLTISGTQAMDEADYYCATYTGFGSLAVFGGGTKLTVL
B3: unnamed (protein)
chain 1: EVQLVQSGAEVKKPGESLRISCKGSGYSFSTYWISWVRQMPGKGLEWMGKIYPGDSYTNYSPSFQGQVTISADKSISTAYLQWSSLKASDTAMYYCARGIGVFDYWGQGTLVTVSS
chain 2: SYELTQPPSVSVSPGQTASITCSGDNIGDQYAHWYQQKPGQSPVLVIYQDKNRPSGIPERFSGSNSGNTATLTISGTQAMDEADYYCATYTGFGSLAVFGGGTKLTVL
B4: unnamed (protein)
chain 1: EVQLVQSGAEVKKPGESLRISCKGSGYSFSSYWISWVRQMPGKGLEWMGKIYPGDSYTNYSPSFQGQVTISADKSISTAYLQWSSLKASDTAMYYCARGYGVFDYWGQGTLVTVSS
chain 2: SYELTQPPSVSVSPGQTASITCSGDNIGDQYAHWYQQKPGQSPVLVIYQDKNRPSGIPERFSGSNSGNTATLTISGTQAMDEADYYCATYTGFGSLAVFGGGTKLTVL
B5: unnamed (protein)
chain 1: EVQLVQSGAEVKKPGESLRISCKGSGYTFSSYWISWVRQMPGKGLEWMGKIYPGDSYTNYSPSFQGQVTISADKSISTAYLQWSSLKASDTAMYYCTRGYGLFDYWGQGTLVTVSS
chain 2: SYELTQPPSVSVSPGQTASITCSGDNIGDQYAHWYQQKPGQSPVLVIYQDKNRPSGIPERFSGSNSGNTATLTISGTQAMDEADYYCATYTGFGSLAVFGGGTKLTVL
B6: unnamed (protein)
chain 1: EVQLVQSGAEVKKPGESLRISCKGSGYTFSDYWISWVRQMPGKGLEWMGKIYPGDSYTNYSPSFQGQVTISADKSISTAYLQWSSLKASDTAMYYCARGYGLFDYWGQGTLVTVSS
chain 2: SYELTQPPSVSVSPGQTASITCSGDNIGDQYAHWYQQKPGQSPVLVIYQDKNRPSGIPERFSGSNSGNTATLTISGTQAMDEADYYCATYTGFGSLAVFGGGTKLTVL
B7: unnamed (protein)
chain 1: EVQLVQSGAEVKKPGESLRISCKGSGYTFSSYWISWVRQMPGKGLEWMGKIYPGNSYTNYSPSFQGQVTISADKSISTAYLQWSSLKASDTAMYYCARGDGVFDYWGQGTLVTVSS
chain 2: SYELTQPPSVSVSPGQTASITCSGDNIGDQYAHWYQQKPGQSPVLVIYQDKNRPSGIPERFSGSNSGNTATLTISGTQAMDEADYYCATYTGFGSLAVFGGGTKLTVL
B8: unnamed (protein)
chain 1: EVQLVQSGAEVKKPGESLRISCKGSGYSFSTYWISWVRQMPGKGLEWMGKIYPGDSYTNYSPSFQGQVTISADKSISTAYLQWSSLKASDTAMYYCARGWGLFDYWGQGTLVTVSS
chain 2: SYELTQPPSVSVSPGQTASITCSGDNIGDQYAHWYQQKPGQSPVLVIYQDKNRPSGIPERFSGSNSGNTATLTISGTQAMDEADYYCATYTGFGSLAVFGGGTKLTVL
B9: unnamed (protein)
chain 1: EVQLVQSGAEVKKPGESLRISCKGSGYTFSSYWISWVRQMPGKGLEWMGKIYPGDSYTNYSPSFQGQVTISADKSISTAYLQWSSLKASDTAMYYCARGYGLFDYWGQGTLVTVSS
chain 2: SYELTQPPSVSVSPGQTASITCSGDNIGDQYAHWYQQKPGQSPVLVIYQDKNRPSGIPERFSGSNSGNTATLTISGTQAMDEADYYCATYTGFGSLAVFGGGTKLTVL
B10: unnamed (protein)
chain 1: EVQLVQSGAEVKKPGESLRISCKGSGYSFSNYWISWVRQMPGKGLEWMGKIYPGDSYTNYSPSFQGQVTISADKSISTAYLQWSSLKASDTAMYYCARGYGLFDYWGQGTLVTVSS
chain 2: SYELTQPPSVSVSPGQTASITCSGDNIGDQYAHWYQQKPGQSPVLVIYQDKNRPSGIPERFSGSNSGNTATLTISGTQAMDEADYYCATYTGFGSLAVFGGGTKLTVL
B11: unnamed (protein)
chain 1: EVQLVQSGAEVKKPGESLRISCKGSGYSFSTYWISWVRQMPGKGLEWMGKIYPGDSYTNYSPSFQGQVTISADKSISTAYLQWSSLKASDTAMYYCSRGYGIFDYWGQGTLVTVSS
chain 2: SYELTQPPSVSVSPGQTASITCSGDNIGDQYAHWYQQKPGQSPVLVIYQDKNRPSGIPERFSGSNSGNTATLTISGTQAMDEADYYCATYTGFGSLAVFGGGTKLTVL
B12: unnamed (protein)
chain 1: EVQLVQSGAEVKKPGESLRISCKGSGYTFSDYWISWVRQMPGKGLEWMGKIYPGDSYTNYSPSFQGQVTISADKSISTAYLQWSSLKASDTAMYYCARGYGIFDYWGQGTLVTVSS
chain 2: SYELTQPPSVSVSPGQTASITCSGDNIGDQYAHWYQQKPGQSPVLVIYQDKNRPSGIPERFSGSNSGNTATLTISGTQAMDEADYYCATYTGFGSLAVFGGGTKLTVL
B13: unnamed (protein)
chain 1: EVQLVQSGAEVKKPGESLRISCKGSGYTFSNYWISWVRQMPGKGLEWMGKIYPGDSYTNYSPSFQGQVTISADKSISTAYLQWSSLKASDTAMYYCARGYGLFDYWGQGTLVTVSS
chain 2: SYELTQPPSVSVSPGQTASITCSGDNIGDQYAHWYQQKPGQSPVLVIYQDKNRPSGIPERFSGSNSGNTATLTISGTQAMDEADYYCATYTGFGSLAVFGGGTKLTVL
B14: unnamed (protein)
chain 1: EVQLVQSGAEVKKPGESLRISCKGSGYSFSSYWISWVRQMPGKGLEWMGKIYPGDSYTNYSPSFQGQVTISADKSISTAYLQWSSLKASDTAMYYCARGYGLFDYWGQGTLVTVSS
chain 2: SYELTQPPSVSVSPGQTASITCSGDNIGDQYAHWYQQKPGQSPVLVIYQDKNRPSGIPERFSGSNSGNTATLTISGTQAMDEADYYCATYTGFGSLAVFGGGTKLTVL
B15: unnamed (protein)
chain 1: EVQLVQSGAEVKKPGESLRISCKGSGYSFSSYWISWVRQMPGKGLEWMGKIYPGDSYTNYSPSFQGQVTISADKSISTAYLQWSSLKASDTAMYYCARGTGLFDYWGQGTLVTVSS
chain 2: SYELTQPPSVSVSPGQTASITCSGDNIGDQYAHWYQQKPGQSPVLVIYQDKNRPSGIPERFSGSNSGNTATLTISGTQAMDEADYYCATYTGFGSLAVFGGGTKLTVL
B16: unnamed (protein)
chain 1: EVQLVQSGAEVKKPGESLRISCKGSGYTFSSYWISWVRQMPGKGLEWMGKIYPGDSYTNYSPSFQGQVTISADKSISTAYLQWSSLKASDTAMYYCTRGYGIFDYWGQGTLVTVSS
chain 2: SYELTQPPSVSVSPGQTASITCSGDNIGDQYAHWYQQKPGQSPVLVIYQDKNRPSGIPERFSGSNSGNTATLTISGTQAMDEADYYCATYTGFGSLAVFGGGTKLTVL
B17: unnamed (protein)
chain 1: EVQLVQSGAEVKKPGESLRISCKGSGYSFSTYWISWVRQMPGKGLEWMGKIYPGDSYTNYSPSFQGQVTISADKSISTAYLQWSSLKASDTAMYYCARGWGIFDYWGQGTLVTVSS
chain 2: SYELTQPPSVSVSPGQTASITCSGDNIGDQYAHWYQQKPGQSPVLVIYQDKNRPSGIPERFSGSNSGNTATLTISGTQAMDEADYYCATYTGFGSLAVFGGGTKLTVL
B18: unnamed (protein)
chain 1: EVQLVQSGAEVKKPGESLRISCKGSGYSFSTYWISWVRQMPGKGLEWMGKIYPGDSYTNYSPSFQGQVTISADKSISTAYLQWSSLKASDTAMYYCARGHGVFDYWGQGTLVTVSS
chain 2: SYELTQPPSVSVSPGQTASITCSGDNIGDQYAHWYQQKPGQSPVLVIYQDKNRPSGIPERFSGSNSGNTATLTISGTQAMDEADYYCATYTGFGSLAVFGGGTKLTVL
B19: unnamed (protein)
chain 1: EVQLVQSGAEVKKPGESLRISCKGSGYTFSNYWISWVRQMPGKGLEWMGKIYPGDSYTNYSPSFQGQVTISADKSISTAYLQWSSLKASDTAMYYCARGYGIFDYWGQGTLVTVSS
chain 2: SYELTQPPSVSVSPGQTASITCSGDNIGDQYAHWYQQKPGQSPVLVIYQDKNRPSGIPERFSGSNSGNTATLTISGTQAMDEADYYCATYTGFGSLAVFGGGTKLTVL
B20: unnamed (protein)
chain 1: EVQLVQSGAEVKKPGESLRISCKGSGYSFSTYWISWVRQMPGKGLEWMGKIYPGDSYTNYSPSFQGQVTISADKSISTAYLQWSSLKASDTAMYYCTRGTGIFDYWGQGTLVTVSS
chain 2: SYELTQPPSVSVSPGQTASITCSGDNIGDQYAHWYQQKPGQSPVLVIYQDKNRPSGIPERFSGSNSGNTATLTISGTQAMDEADYYCATYTGFGSLAVFGGGTKLTVL

What is called Kd is the concentration at which binding is half-saturated. Read a low Kd as tighter binding.

The test addresses TNFRSF9, Q07011. Kind of test: Kd (SPR).
B1: the Kd came to 141 nM.
Molecule B2 had a Kd of 142 nM.
Consider B3, for which the Kd is 33.4 nM.
For B4 the value was 228 nM; for B5, 109 nM.
The molecule B6 registered a Kd of 84.1 nM.
With B7, the Kd came out at 32.9 nM.
As to B8, the Kd stood at 60.3 nM.
Turning to B9, the Kd was 86.1 nM.
B10 showed a Kd of 145 nM.
The molecule B11 displayed a Kd of 39.7 nM.
Consider B12, for which the Kd turned out to be 120 nM.
With B13, the Kd amounted to 117 nM.
For the molecule B14, the Kd was found to be 51.1 nM.
B15 showed a Kd of 150 nM.
On to B16, for which the Kd came to 95.4 nM.
The molecule B17 registered a Kd of 45 nM.
In the case of B18, the Kd came to 315 nM. This Kd is about 7-fold higher than that of the molecule before.
As to B19, the Kd is 86.4 nM. This Kd is about 3.6-fold lower than that of the molecule before.
B20 yielded an equilibrium dissociation constant (Kd) of 92 nM.

Values taken from the FLAb antibody collection (doi:10.1101/2023.12.08.570889).
